The target in test [1] is T1, Spa2-C (Spa2 C-terminal region, 1306-1466aa) (S. cerevisiae, UniProt P23201 1306-1466).
T1 chain: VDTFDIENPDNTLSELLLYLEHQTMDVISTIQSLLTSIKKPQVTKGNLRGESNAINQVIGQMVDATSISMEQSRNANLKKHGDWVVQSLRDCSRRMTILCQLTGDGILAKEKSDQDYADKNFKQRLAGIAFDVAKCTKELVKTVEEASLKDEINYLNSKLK
Put plainly: SPR; bivalent model, koff2 (second site).

Test [2] has as its target T1, Spa2-C (Spa2 C-terminal region, …). Briefly: SPR; bivalent model, koff1.

B1: Aip5-N271 (domain or fragment)
chain: MVESLTVENQEHNVQPPSVTSAGDSYSTLATDLPLPSTNDIIESRDQLTESDLDEAINATENFAQELSSQRKSSKLKGHKKKNQGQIKANRDRDTIVKLSSSVGETEEASTRDAISHDLERKDDVIEIATDTINDATESPTQIPIDVNVVIKETSTNNVAEGTENVPPIKESTGIEVGNSPITRRKKNKKKKTTNRRGRNSSNPADTTDLSKQSTLDSILVGIEEYLQEDGSKNEDIKVNIVQDEPVNVEKMDIRTRNESSDKTFDIDVPN
For B1, the figures for the koff in test [1] and in test [2] were 0.00266 s⁻¹ and 0.046 s⁻¹, respectively.
